In patent US5208158A, “Oxidation stable detergent enzymes” (Novo Nordisk A/S, priority 1990, dated 1993):

T1: Subtilisin-309 variant Subtilisin-309-M222C-SM (M222C chemically modified with MMTS) (Lederbergia lenta, UniProt P29600, M216C)
T1 construct: made in house
T1 sequence (P29600 1-269 M216C): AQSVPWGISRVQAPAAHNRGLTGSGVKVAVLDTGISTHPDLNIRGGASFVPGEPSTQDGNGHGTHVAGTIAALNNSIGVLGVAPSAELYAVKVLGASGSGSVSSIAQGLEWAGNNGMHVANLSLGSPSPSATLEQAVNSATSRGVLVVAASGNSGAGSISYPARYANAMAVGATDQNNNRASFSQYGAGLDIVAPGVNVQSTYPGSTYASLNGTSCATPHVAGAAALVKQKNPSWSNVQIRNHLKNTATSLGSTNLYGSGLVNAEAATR

T2: Subtilisin-309 variant Subtilisin-309-M222C (Lederbergia lenta, UniProt P29600, M216C)
T2 construct: made in house
T2 sequence (P29600 1-269 M216C): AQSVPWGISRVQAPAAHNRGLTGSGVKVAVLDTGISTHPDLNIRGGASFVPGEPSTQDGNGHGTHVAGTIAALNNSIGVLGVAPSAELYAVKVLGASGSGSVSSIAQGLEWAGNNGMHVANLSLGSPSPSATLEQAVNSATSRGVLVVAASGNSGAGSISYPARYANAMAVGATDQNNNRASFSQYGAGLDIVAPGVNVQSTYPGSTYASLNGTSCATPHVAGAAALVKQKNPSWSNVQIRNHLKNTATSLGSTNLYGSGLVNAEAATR

B1: Subtilisin-309 (wild type) (Lederbergia lenta) (protein)
chain: AQSVPWGISRVQAPAAHNRGLTGSGVKVAVLDTGISTHPDLNIRGGASFVPGEPSTQDGNGHGTHVAGTIAALNNSIGVLGVAPSAELYAVKVLGASGSGSVSSIAQGLEWAGNNGMHVANLSLGSPSPSATLEQAVNSATSRGVLVVAASGNSGAGSISYPARYANAMAVGATDQNNNRASFSQYGAGLDIVAPGVNVQSTYPGSTYASLNGTSMATPHVAGAAALVKQKNPSWSNVQIRNHLKNTATSLGSTNLYGSGLVNAEAATR
B2: Subtilisin-309 variant Subtilisin-309-M222C (Lederbergia lenta; M216C) (protein)
chain: AQSVPWGISRVQAPAAHNRGLTGSGVKVAVLDTGISTHPDLNIRGGASFVPGEPSTQDGNGHGTHVAGTIAALNNSIGVLGVAPSAELYAVKVLGASGSGSVSSIAQGLEWAGNNGMHVANLSLGSPSPSATLEQAVNSATSRGVLVVAASGNSGAGSISYPARYANAMAVGATDQNNNRASFSQYGAGLDIVAPGVNVQSTYPGSTYASLNGTSCATPHVAGAAALVKQKNPSWSNVQIRNHLKNTATSLGSTNLYGSGLVNAEAATR
notes: made in house

Key:
Assay type in all cases: biochemical
[1] = biological target: T1, Subtilisin-309 variant Subtilisin-309-M222C-SM (M222C chemically modified with MMTS); assay: Titration of the enzyme with phenyl-Hg-Cl; details: excess of phenyl-Hg-Cl relative to enzyme of 2.5
Excerpt: (§1) As a further control, the enzyme was titrated with phenyl-Hg-Cl. When subtilisin-309-M222C is modified with phenyl-Hg-Cl, the activity decreases. When the ratio phenyl-Hg-Cl/WT exceeds 1, the activity constantly remains 10% of the activity of the non-modified enzyme, corresponding to 1 group per enzyme being modified.

[2] = biological target: T2, Subtilisin-309 variant Subtilisin-309-M222C; assay: Titration of the enzyme with phenyl-Hg-Cl; details: ratio phenyl-Hg-Cl/enzyme exceeds 1
Excerpt: as §1

[3] = substrate: C[C@H](NC(=O)CCC(=O)O)C(=O)N[C@@H](C)C(=O)N1CCC[C@H]1C(=O)N[C@@H](Cc1ccccc1)C(=O)Nc1ccc([N+](=O)[O-])cc1; assay: Kinetic characterization, cleavage of Suc-Ala-Ala-Pro-Phe-pNA monitored at 410 nm; details: other: 50 mM Bicine, 2 mM CaCl2, 0.1 M KCl, pH 8.5, 25° C., substrate 0.2 to 6.5 mM
Method: The proteolytic activity can be monitored spectrophotometrically at 25° C., following the degradation of the peptide substrates Suc-Ala-Ala-Pro-Phe-pNA (Suc=Succinyl and pNA=p-nitro-anilid) or DMC (dimethyl-casein), and subsequent calculation of the kinetic parameters kcat. and KM.
For kinetic characterization, the savinase enzymes were assayed in:
50 μl X mM Suc-Ala-Ala-Pro-Phe-pNA in DMF
wherein the cleavage of substrate between Phe and pNA (p-nitro-anilid) is monitored spectrophotometrically at 410 nm, Δε=8500M^-1 cm^-1. The enzymatic concentrations are determined from the absorption at 280 nm, using Δε28 determined from the amino acid composition, Δε280 =23217M^-1 cm^-1.
The kinetic parameters kcat and KM are determined from a direct fit of the initial velocities at 7 concentrations of substrate to the Michaelis Menten equation. The […], X, is varied from 4 to 131 mM, so that the concentration of the substrate in assay varies from 0.2 to 6.5 mM. Thus selected around the KM value of the enzymes.

Molecule	activity change on reaction with phenyl-Hg-Cl [1]	activity remaining, of the activity of the non-modified enzyme [2]	Km [3]	kcat [3]	kcat/Km [3]
[Cl][Hg][c]1ccccc1 [phenyl-Hg-Cl]	no activity change is observed	10%			
B1			1760 µM	91.2 ± 1.0 s⁻¹	52 S^-1 mM^-1
B2			1820 µM	43.2 ± 0.03 s⁻¹	23.8 S^-1 mM^-1
